In this experiment the target is T1, Apo-2 ligand (soluble Apo-2L, Pitti et al.) (UniProt P50591 114-281).
T1 construct: also called TRAIL; 125I-Apo-2L
Briefly: 125I-Apo-2L binding to Apo-2DcR-transfected 293 cells; nonspecific binding with 0.5 ug/ml unlabeled Apo-2L.

T1 sequence (P50591 114-281 limits assumed): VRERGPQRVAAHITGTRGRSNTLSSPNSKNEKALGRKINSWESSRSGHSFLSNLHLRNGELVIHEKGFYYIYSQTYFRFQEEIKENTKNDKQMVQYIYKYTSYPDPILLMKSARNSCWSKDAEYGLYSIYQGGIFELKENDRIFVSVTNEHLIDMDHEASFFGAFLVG
Experimental: The effect of pre-treatment of the cells with phosphatidylinositol-specific phospholipase C (PI-PLC) on the binding was also analyzed.
(1 μg/ml) was added to one of the two aliquots derived from each transfection, 5 and the cells were incubated 1 hour at 37° C. The cells were washed and respuspended in 1 ml PBS containing 1% BSA (Sigma), and 0.04 ml aliquots were placed into tubes in triplicate. […] After a 1 hour incubation at room temperature, the cells were washed in ice cold PBS, pelleted, and counted for radioactivity.

B1: full-length native sequence human Apo-2DcR (receptor)
chain: ATTARQEEVPQQTVAPQQQRHSFKGEECPAGSHRSEHTGACNPCTEGVDYTNASNNEPSCFPCTVCKSDQKHKSSCTMTRDTVCQCKEGTFRNENSPEMCRKCSRCPSGEVQVSNCTSWDDIQCVEEFGANATVETPAAEETMNTSPGTPAPAAEETMNTSPGTPAPAAEETMTTSPGTPAPAAEETMTTSPGTPAPAAEETMTTSPGTPA
notes: also called Apo-2DcR receptor; pRK5-hApo-2DcR product
For B1, the binding result is “binds”.

The record behind these values is patent US20020102706A1 (published 2002).
